Results taken from article PMC7144943.

What was measured:
Blanks dsRBD2 mutant = experiment: fluorescence anisotropy; conditions: n=3; assay buffer not given (as in ref 39); protein final buffer 100 mM KAc pH 7.4, 10 mM HEPES pH 7.4, 2 mM MgAc, 5 mM DTT (protein diluted 1:3 into it, then …)
[1] = tested on: Blanks wild-type (cDNA variant); experiment: fluorescence anisotropy; conditions: n=3; assay buffer not given (as in ref 39); protein final buffer 100 mM KAc pH 7.4, 10 mM HEPES pH 7.4, 2 mM MgAc, 5 mM DTT (protein diluted 1:3 into it, then …)

Substance: 23 nt ds siRNA (21 bp)
- Kd (Blanks dsRBD2 mutant): 0.666 µM
- Kd [1]: 0.177 µM
